According to US20150299272A1 (UNIVERSITY OF NEWCASTLE UPON TYNE, published 2015):

Experiments:
[1] = target: the molecule itself; assay: Superdex 200 gel filtration (self-association)
[2] = target: Caf1-6His NT + Spacer linking peptide (Yersinia pestis); assay: co-expression in E. coli, western blot of partly heat-dissociated polymer

B1: Caf1 WT (naturally occurring Caf1 polypeptide monomer from Yersinia pestis; fraction 1 antigen polymer) (other)
chain: ADLTASTTATATLVEPARITLTYKEGAPITIMDNGNIDTELLVGTLTLGGYKTGTTSTSVNFTDAAGDPMYLTFTSQDGNNHQFTTKVIGKDSRDFDISPKVNGENLVGDDVVLATGSQDFFVRSIGSKGGKLAAGKYTDAVTVTVSNQ
B1: binds [1]; binds [2].
